Like-named read-outs stand apart in the source and are kept apart here.
Assays:
[1] = target: Transduced TCR: None
[2] = target: DR1-restricted TCR HA1.7
[3] = target: memory CD4+ T cells from DR1+ donors, unstimulated (a small subset; their TCRs)
[4] = target: memory CD4+ T cells from DR1+ donors, unstimulated (a small subset; their TCRs); remark: listed apart in the source
[5] = target: memory CD4+ T cells from DR1+ donors, unstimulated (a small subset; their TCRs); remark: listed apart in the source
[6] = target: DR1-restricted TCR HA1.7; remark: listed apart in the source
[7] = target: Transduced TCR: None; remark: listed apart in the source
[8] = target: DR1-restricted TCR HA1.7; remark: listed apart in the source
[9] = target: DR1-restricted TCR HA1.7; assay: flow cytometry, TCR-transduced primary T cells
[10] = target: memory CD4+ T cells from DR1+ donors, unstimulated (a small subset; their TCRs); remark: listed apart in the source
[11] = target: Transduced TCR: None; remark: listed apart in the source
[12] = target: DR1-restricted TCR HA1.7; remark: listed apart in the source
[13] = target: memory CD4+ T cells from DR1+ donors, unstimulated (a small subset; their TCRs); remark: listed apart in the source
[14] = target: memory CD4+ T cells from DR1+ donors, unstimulated (a small subset; their TCRs); remark: listed apart in the source
[15] = target: memory CD4+ T cells from DR1+ donors, unstimulated (a small subset; their TCRs); remark: listed apart in the source
[16] = target: memory CD4+ T cells from DR1+ donors, unstimulated (a small subset; their TCRs); remark: listed apart in the source
[17] = target: memory CD4+ T cells from DR1+ donors, unstimulated (a small subset; their TCRs); remark: listed apart in the source
[18] = target: Transduced TCR: None; remark: listed apart in the source

Substance “DR1^L114W/V143M dimer loaded with Flu-HA306-318 (peptide-MHC)” has a percent multimer-positive CD4+ cells (number at the gate) [1] of 0% and a percent multimer-positive CD4+ cells (number at the gate) [2] of 1.5%.
“DR1^L114W/V143M+2reps dimer loaded with Flu-HA117-136 (peptide-MHC)” showed an events in the dimer+ CD4+ gate [3] of 74 evts and an events in the dimer+ CD4+ gate [4] of 10 evts.
Substance “DR1^L114W/V143M+2reps dimer loaded with Flu-HA306-318 (peptide-MHC)” has an events in the dimer+ CD4+ gate [5] of 53 evts, a percent multimer-positive CD4+ cells (number at the gate) [6] of 48.9% and a percent multimer-positive CD4+ cells (number at the gate) [7] of 0%. The percent multimer-positive CD4+ cells (number at the gate) [8] was 53%, the % dimer+ CD4+ cells [9] was 9.1% and the events in the dimer+ CD4+ gate [10] was 18 evts.
For “DR1^L114W/V143M+6reps dimer loaded with Flu-HA306-318 (peptide-MHC)”, the percent multimer-positive CD4+ cells (number at the gate) [11] was 0.1% and the percent multimer-positive CD4+ cells (number at the gate) [12] was 48.2%.
“Flu-HA5-24, DR1^L114W/V143M+2reps dimer (PE) (peptide-MHC)” gave an events in the dimer+ CD4+ gate [13] of 1 evts and an events in the dimer+ CD4+ gate [14] of 2 evts.
“Flu-HA232-251, DR1^L114W/V143M+2reps dimer (PE) (peptide-MHC)” showed an events in the dimer+ CD4+ gate [15] of 0 evts.
For “Flu-HA268-287, DR1^L114W/V143M+2reps dimer (PE) (peptide-MHC)”, the events in the dimer+ CD4+ gate [16] was 2 evts and the events in the dimer+ CD4+ gate [17] was 0 evts.
“wild-type DR1 dimer loaded with Flu-HA306-318 (from UniProt P01911 30-227) (peptide-MHC)” showed a percent multimer-positive CD4+ cells (number at the gate) [18] of 0.1%.

From patent publication US20220291215A1
